Substrate in this series: NC(=O)c1ccc[n+]([C@@H]2O[C@H](COP(=O)(O)OP(=O)(O)OC[C@H]3O[C@@H](n4cnc5c(N)ncnc54)[C@H](OP(=O)(O)O)[C@@H]3O)[C@@H](O)[C@H]2O)c1
Briefly: purified protein.

B1: Glucose-6-phosphate dehydrogenase (camel liver G6PD) (Camelus dromedarius) (protein)
chain: AEQVALSRNQVCGILREELYQGDAFHQSDTHIFIIMGASGDLAKKKIYPTIWWLFRDGLLPEDTYIVGYARSRLTVADIRKQSEPFFKATPEEKPKLEEFFARNSYVAGQYDDAASYERLNSHMNALHQGSQANRLFYLALPPTVYEAVTKNIRETCMSQTGWNRIIVEKPFGRDLQSSNQLSNHISSLFREDQIYRIDHYLGKEMVQNLMVLRFANRIFGPIWNRDNIACVILTFKEPFGTEGRGGYFDEFGIIRDVMQNHLLQMLCLVAMEKPASTDSDDVRDEKVKVLKCISEVQANNVVLGQYVGNPNGEGEATKGYLDDPTVPRGSITATFAAVVLYVENERWDGVPFILRCGKALNERKAEVRLQFRDVAGDIFQQQCKRNEVVIRVQPNEAVYTKMMTKKPGMFFNPEESELDLTYGNRYKNVKLPDAYERLILDVFCGSQMHFVRSDELREAWRIFTPLLHKIEREKLQPIPYVYGSRGPAEADELMKRVGFQYEGTYKWVNPHKL
For B1, the Km came to 81 µM.

By Km is commonly meant the substrate concentration at which the rate is half of its maximum.

The record behind these values is article PMC4290037, “Purification and Characterization of Glucose-6-Phosphate Dehydrogenase from Camel Liver” (Enzyme Research, 2014).
